Patent US12479895B2, “C-terminal CDNF and MANF fragments, pharmaceutical compositions comprising same and uses thereof” (MyNeuroCure Oy, priority 2018, dated 2025)

How the values were obtained:
[1] = tested on: SOD1-G93A mouse ALS model; test: SOD1-G93A mouse model of ALS; assay type: in vivo
From the text: Transgenic SOD1 G93A mice served as a transgenic mouse model for ALS in this study. Transgenic mice containing various human SOD1 mutations develop progressive neurodegeneration and motoneuron (MN) death, providing an animal model that has been commonly used for preclinical trials and that has greatly contributed to the understanding of FALS pathogenesis (Gurney et al., 1994). […] In these mice hind limb weakness and tremulous movement appear as initial symptoms at 8-10 week of age, followed by major symptoms such as progressive motor paralysis and neurogenic amyotrophy (Shibata 2001). These mice subsequently show disability of gait, eating and drinking and die within some weeks, usually at 14-16 week of age. The transgenic mice carrying the human SOD1 with the glycine93 to alanine mutated were originally obtained from The Jackson Laboratory (http://www.jax.org), Bar Harbor, ME; Strain B6SJL-TgN (SOD1-G93A) 1Gur). Transgenic expression was analyzed by DNA tail tests and PCR, using specific oligonucleotides and conditions as done previously by others (see homepage Jackson Lab). In all the experiments the wild-type B6SJL-TgN (SOD1) 2Gur were included as controls.
In the single administration experiment, mice at around 13 weeks of age received a single intracerebroventricular injection of PBS or C-CDNF (3.75 μg that is equimolar to full-length CDNF 10 μg diluted in PBS) under isofluorane anesthesia. Mice were then evaluated for signs of disease and body weight changes twice a week. Evaluation was completed by a battery of behavioral tests designed to assess motor activity in the mice; the battery comprises tests e.g rotarod.
In the chronic infusion experiment, 12-week-old SOD1 mice were inserted a brain infusion cannula (connected via catheter-tubing to an Alzet osmotic minipump) to the right lateral ventricle under isoflurane anesthesia. C-CDNF (1.5 μg/24 h) was infused for 28 days. Motor behavior was evaluated with rotarod. Mice were evaluated for clinical signs and body weight changes.
Clinical scoring for SOD1 mice was done using instructions from Jackson laboratory. The mice were carefully examined 2 times a week after they were 12 weeks old. Animals were scored by lifting them gently by the base of their tails and observing them for tremors, stiffness and their ability to extend their limbs. The clinical scoring is on a scale of 1 to 5, based on ALSTDI (ALS therapy Development Institute) hind limb neurological scoring system.
In rotarod, mice were put to a rotating rod (accelerating speed 4-40 rpm/minute), (Ugo Basile, Italy). Cut off time was 4 minutes. Rotarod test was done 2 times a week after the mice were 12 weeks old.

[2] = tested on: rat model of cerebral ischemia; test: Distal occlusion of the middle cerebral artery as a model of cerebral stroke; assay type: in vivo
Procedure: Male Sprague Dawley rats (weight 230-270 g, Envigo, Netherlands) were used for the experiments which were conducted according to the 3R principles of EU directive 2010/63/EU on the care and use of experimental animals, local laws and regulations, and were approved by the national Animal Experiment Board of Finland All experiments were performed in a blinded manner and the rats were assigned to different treatment groups randomly. Rats were anesthesized with chloral hydrate (0.4 g/kg, i.p). A cortical stroke was induced by occluding the distal middle cerebral artery (dMCA) together with a bilateral common carotid artery (CCA) occlusion for 60 min as described previously (Chen, et al., 1986). Briefly, the bilateral CCAs were identified and isolated through a ventral midline cervical incision. Rats were placed in stereotaxic apparatus and a craniotomy was made in the right hemisphere. The right (MCA) was ligated with a 10-0 suture and bilateral common carotids (CCA) were ligated with non-traumatic arterial clamps for 60 minutes. […]
To test the neuroprotective effect of subcutaneous C-CDNF, 50 μg of C-CDNF was given 30-50 min before dMCA occlusion and immediately after reperfusion in volume of 100 μl s.c. Phosphate-buffered saline (PBS) was used as vehicle control. […] The area of infarction in each slice was measured with a digital scanner and ImageJ software. […]

B1: KYEKTLDLASVDLRKMRVAELKQILHSWGEECRACAEKTDYVNLIQELAPKYAATHPKTEL (peptide, listed as Homo sapiens)
chain: KYEKTLDLASVDLRKMRVAELKQILHSWGEECRACAEKTDYVNLIQELAPKYAATHPKTEL
motor coordination (rotarod performance) ([1]; 4-week chronic intracerebroventricular infusion 1.5 μg/24 h, significant week 13 until week 19, p<0.01): improves motor coordination
relative changes in body weight ([1]; 4-week chronic intracerebroventricular infusion 1.5 μg/24 h, weeks 18 and 19, p<0.05 vs PBS): Significant differences
motor behavior (rotarod, latency to fall) ([1]; single intracerebroventricular injection 3.75 μg at 13 weeks, SOD1-G93A females, vs PBS): improves the motor behavior
clinical score ([1]; single intracerebroventricular injection 3.75 μg at the age of 13 weeks, female animals, vs PBS): statistically significantly better clinical scores
infarction volume (rostral part of the cerebral cortex) ([2]; 50 μg s.c. 30-50 minutes before dMCA occlusion and right after reperfusion, p<0.05 vs PBS): decreases
smaller lesions than the vehicle treated rats ([2]; 50 μg s.c. before dMCA occlusion and right after reperfusion, n=8-9): about 50%
